Results from patent US20200199567A1, “METHODS FOR SELECTION AND EXPANSION OF T CELLS EXPRESSING PD-1” (MEDIMMUNE, LLC, priority 2018, published 2020).

Key:
[1] = test system: PD-1 expression in peripheral blood; assay: PD-1 expression in peripheral blood after anti-CTLA-4 pre-treatment, Taqman qRT-PCR; format: in vivo, human
Protocol: The effect of anti-CTLA-4 antibody (tremelimumab) pre-treatment on PD-1 expression in peripheral blood was tested by Taqman qRT-PCR.

PD-1 expressing T cells = assay: Magnetic bead enrichment (selection) of PD-1 expressing T cells with biotinylated anti-PD-1 antibody; format: cell-based, human; details: 4° C.
Protocol: Donor blood was obtained in the form of human peripheral blood through standard leukapheresis or blood draw protocols. The red blood cells were removed from the donor blood by centrifugation protocols known in the art. Briefly, the peripheral blood was centrifuged, the supernatant discarded, the pellet was resuspended in ammonium chloride potassium (ACK) buffer, the ACK pellet suspension was incubated at room temperature, and the cells were washed twice in wash buffer to produce a cell pellet.
Enrichment of the PD-1 expressing cells was then performed. The washed cell pellet was resuspended in wash buffer and cell count determined. Wash buffer was added to bring the cell density to 100×10^6 cells per mL. 1 μg/mL MEDI3097 antibody was added to the cells to produce an antibody-cell mixture comprising cells and MEDI3097 antibody. The antibody mixture was incubated at 4° C. for 15 minutes and then centrifuged and washed twice with wash buffer. Wash buffer was added to bring cell density to 125×10^6 cells per mL. Anti-biotin beads were then added to the cells at a concentration of 2 mL beads per 1 billion cells to produce a bead mixture. […]
Enrichment of PD-1 expressing T cells was performed after red blood cells were removed from leukapheresis products. The washed cell pellet was resuspended in wash buffer and cell count determined. […]

PD-1 = PD-1 (Homo sapiens, UniProt Q15116); assay: Binding affinity of anti-PD-1 antibody
Chain of PD-1 (Q15116 25-288): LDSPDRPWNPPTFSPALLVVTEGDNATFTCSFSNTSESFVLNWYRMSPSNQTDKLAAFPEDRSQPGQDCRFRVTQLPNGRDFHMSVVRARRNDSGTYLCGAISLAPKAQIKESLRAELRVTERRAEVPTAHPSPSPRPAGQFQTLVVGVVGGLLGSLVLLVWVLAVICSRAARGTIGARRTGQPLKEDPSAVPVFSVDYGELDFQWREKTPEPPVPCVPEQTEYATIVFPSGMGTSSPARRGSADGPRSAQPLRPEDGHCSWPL

tremelimumab: anti-CTLA-4 antibody
overall survival (OS) of patients with induced PD-1 expression ([1]; high responder group versus <1.5 fold group, clinical trial NTC02527434): improved overall survival
increase PD-1 expression in peripheral blood ([1]; in a group of patients, after 9-10 days): > 1.5 fold

B1: MEDI0680: anti-PD-1 antibody (antibody, V domains shown)
VH: EVQLVESGGGLVQPGGSLRLSCAASGFTFSDYGMHWVRQAPGKGLEWVAYISSGSYTIYSADSVKGRFTISRDNAKNTLYLQMSSLRAEDTAVYYCARRGYGSFYEYYFDYWGQGTTVTVSS
VL: QIVLTQSPATLSLSPGERATLSCSASSSVSYMYWYQQKPGQAPRLLIYLTSNRATGIPARFSGSGSGTDYSSTLTISSLEPEDFAVYYCQQWSSNPFTFGQGTKLEIK
antibody concentration at which impact on PD-1 expression level plateaued (PD-1 expressing T cells): around 5.0 μg/mL
binding affinity (PD-1): low binding affinity

B2: LO115: anti-PD-1 antibody (antibody)
heavy: EVQLVESGGGLVQPGGSLRLSCAASGFTFSDYGMHWVRQAPGKGLEWVAYISSGSYTIYSADSVKGRFTISRDNAKNSLYLQMNSLRAEDTAVYYCARRAPNSFYEYYFDYWGQGTTVTVSSASTKGPSVFPLAPSSKSTSGGTAALGCLVKDYFPEPVTVSWNSGALTSGVHTFPAVLQSSGLYSLSSVVTVPSSSLGTQTYICNVNHKPSNTKVDKRVEPKSCDKTHTCPPCPAPEFEGGPSVFLFPPKPKDTLMISRTPEVTCVVVDVSHEDPEVKFNWYVDGVEVHNAKTKPREEQYNSTYRVVSVLTVLHQDWLNGKEYKCKVSNKALPASIEKTISKAKGQPREPQVCTLPPSREEMTKNQVSLSCAVKGFYPSDIAVEWESNGQPENNYKTTPPVLDSDGSFFLVSKLTVDKSRWQQGNVFSCSVMHEALHNHYTQKSLSLSPGK
light: QIVLTQSPATLSLSPGERATLSCSASSKHTNLYWSRHMYWYQQKPGQAPRLLIYLTSNRATGIPARFSGSGSGTDFTLTISSLEPEDFAVYYCQQWSSNPFTFGQGTKLEIKRTVAAPSVFIFPPSDEQLKSGTASVVCLLNNFYPREAKVQWKVDNALQSGNSQESVTEQDSKDSTYSLSSTLTLSKADYEKHK
binding affinity (PD-1): high binding affinity
